Measured values from patent publication US20120294822A1 (ALDERBIO, published 2012).

Molecular target: T1, Homo sapiens CGRP-alpha (Calcitonin Gene Related Peptide alpha) (Homo sapiens, -NH2 at the C-terminal end as printed ('wherein the N-terminal phenylalanine is amidated'); 125I radiolabeled in the receptor binding assay of Example 6)
T1 construct: 37-residue synthetic peptide from American Peptides / Bachem; Coated directly on the plate in the ELISA of recombinant antibodies; also called CGRPα; human CGRPα
T1 peptide: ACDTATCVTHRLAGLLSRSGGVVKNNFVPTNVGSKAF
Test: ELISA, CGRPα coated on plate, anti-human IgG Fc-HRP detection
Experimental: To characterize recombinant expressed antibodies for their ability to bind to human-CGRPα antibody-containing solutions were tested by ELISA. All incubations were done at room temperature. Briefly, Immulon IV plagtes (Thermo Scientific), were coated with a CGRPα containing solution (1 ut/mL in PBS) for 2 hours. CGRPα-coated plates were then washed three times in wash buffer (PBS, 0.05% Tween-20). The plates were then blocked using a blocking solution (PBS, 0.5% fish skin gelatin, 0.05% Tween-20) for approximately one hour. The blocking solution was then removed and the plates were then incubated with a dilution series of the antibody being tested for approximately one hour. At the end of this incubation, the plate was washed three times with wash buffer and further incubated with a secondary antibody containing solution (Peroxidase conjugated affinipure F(ab′)2 fragment goat anti-human IgG, Fc fragment specific (Jackson Immunoresearch) for approximately 45 minutes and washed three times. At that point a substrate solution (TMB peroxidase substrate, BioFx) and incubated for 3 to 5 minutes in the dark. The reaction was stopped by addition of a HCl containing solution (0.5M) and the plate was read at 450 nm in a plate-reader.

B1: Antibody Ab1 (antibody, human IgG1, kappa, N297A, V domains shown)
VH: QSLEESGGRLVTPGTPLTLTCTVSGLDLSSYYMQWVRQAPGKGLEWIGVIGINDNTYYASWAKGRFTISRASSTTVDLKMTSLTTEDTATYFCARGDIWGPGTLVTVSS
VL: QVLTQTASPVSAAVGSTVTINCQASQSVYDNNYLAWYQQKPGQPPKQLIYSTSTLASGVSSRFKGSGSGTQFTLTISDLECADAATYYCLGSYDCSSGDCFVFGGGTEVVVKR
notes: Chimeric (rabbit variable, human gamma-1/kappa constant) full-length anti-CGRP antibody
  binding result: binds

B2: Antibody Ab9 (antibody, human IgG1, kappa, N297A, V domains shown)
VH: QSLEESGGRLVTPGTPLTLTCTVSGIGLSSYYMQWVRQSPGRGLEWIGVIGSDGKTYYATWAKGRFTISKTSSTTVDLRMASLTTEDTATYFCTRGDIWGPGTLVTVSS
VL: QVLTQTPSPVSAAVGSTVTINCQASQNVYNNNYLAWYQQKPGQPPKQLIYSTSTLASGVSSRFRGSGSGTQFTLTISDVQCDDAATYYCLGSYDCSRGDCFVFGGGTEVVVKR
notes: Chimeric full-length anti-CGRP antibody
  binding result: binds

B3: Antibody Ab4 (antibody, human IgG1, kappa, N297A, V domains shown)
VH: QSLEESGGRLVTPGTPLTLTCSVSGIDLSGYYMNWVRQAPGKGLEWIGVIGINGATYYASWAKGRFTISKTSSTTVDLKMTSLTTEDTATYFCARGDIWGPGTLVTVSS
VL: QVLTQTPSPVSAAVGSTVTINCQASQSVYHNTYLAWYQQKPGQPPKQLIYDASTLASGVPSRFSGSGSGTQFTLTISGVQCNDAAAYYCLGSYDCTNGDCFVFGGGTEVVVKR
  binding result: binds

B4: Antibody Ab11 (antibody, human IgG1, kappa, N297A, V domains shown)
VH: QSLEESGGRLVTPGGSLTLTCTVSGIDVTNYYMQWVRQAPGKGLEWIGVIGVNGKRYYASWAKGRFTISKTSSTTVDLKMTSLTTEDTATYFCARGDIWGPGTLVTVSS
VL: QVLTQTASPVSPAVGSTVTINCRASQSVYYNNYLAWYQQKPGQPPKQLIYSTSTLASGVSSRFKGSGSGTQFTLTISDVQCDDAATYYCLGSYDCSNGDCFVFGGGTEVVVKR
notes: Chimeric full-length anti-CGRP antibody; also called Abll
  binding result: binds

B5: Antibody Ab7 (antibody, human IgG1, kappa, N297A, V domains shown)
VH: QEQLKESGGRLVTPGTSLTLTCTVSGIDLSNHYMQWVRQAPGKGLEWIGVVGINGRTYYASWAKGRFTISRTSSTTVDLKMTRLTTEDTATYFCARGDIWGPGTLVTVSS
VL: QVLTQTASPVSAAVGSTVTINCQASQSVYNYNYLAWYQQKPGQPPKQLIYSTSTLASGVSSRFKGSGSGTQFTLTISDVQCDDAATYYCLGSYDCSTGDCFVFGGGTEVVVKR
notes: as for B2
  binding result: binds

B6: Antibody Ab2 (antibody, human IgG1, kappa, N297A)
heavy: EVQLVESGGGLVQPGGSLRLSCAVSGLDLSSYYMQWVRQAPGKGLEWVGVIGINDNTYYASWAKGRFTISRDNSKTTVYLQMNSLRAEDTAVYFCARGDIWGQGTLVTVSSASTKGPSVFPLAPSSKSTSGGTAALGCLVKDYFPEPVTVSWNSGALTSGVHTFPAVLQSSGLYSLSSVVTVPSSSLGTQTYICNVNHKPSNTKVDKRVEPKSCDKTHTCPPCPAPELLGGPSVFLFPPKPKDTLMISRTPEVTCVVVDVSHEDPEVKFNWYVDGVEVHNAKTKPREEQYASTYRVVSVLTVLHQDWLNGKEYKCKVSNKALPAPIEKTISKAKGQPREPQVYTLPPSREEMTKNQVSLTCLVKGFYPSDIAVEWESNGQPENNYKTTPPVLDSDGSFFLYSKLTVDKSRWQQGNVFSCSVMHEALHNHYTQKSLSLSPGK
light: QVLTQSPSSLSASVGDRVTINCQASQSVYDNNYLAWYQQKPGKVPKQLIYSTSTLASGVPSRFSGSGSGTDFTLTISSLQPEDVATYYCLGSYDCSSGDCFVFGGGTKVEIKRTVAAPSVFIFPPSDEQLKSGTASVVCLLNNFYPREAKVQWKVDNALQSGNSQESVTEQDSKDSTYSLSSTLTLSKADYEKHKVYACEVTHQGLSSPVTKSFNRGEC
notes: Humanized full-length anti-CGRP antibody
  binding result: binds

B7: Antibody Ab6 (antibody, human IgG1, kappa, N297A)
heavy: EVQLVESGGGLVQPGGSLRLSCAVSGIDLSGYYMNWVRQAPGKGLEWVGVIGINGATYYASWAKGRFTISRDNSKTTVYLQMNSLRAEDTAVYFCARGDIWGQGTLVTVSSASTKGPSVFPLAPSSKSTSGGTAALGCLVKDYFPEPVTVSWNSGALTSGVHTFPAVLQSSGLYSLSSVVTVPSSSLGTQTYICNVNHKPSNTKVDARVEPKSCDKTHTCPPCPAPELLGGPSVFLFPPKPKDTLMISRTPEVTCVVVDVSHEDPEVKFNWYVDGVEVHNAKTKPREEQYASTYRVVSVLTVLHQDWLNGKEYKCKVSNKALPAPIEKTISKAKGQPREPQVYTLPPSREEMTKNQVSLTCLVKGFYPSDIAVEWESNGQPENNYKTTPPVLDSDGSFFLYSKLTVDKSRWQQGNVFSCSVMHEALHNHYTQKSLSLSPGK
light: QVLTQSPSSLSASVGDRVTINCQASQSVYHNTYLAWYQQKPGKVPKQLIYDASTLASGVPSRFSGSGSGTDFTLTISSLQPEDVATYYCLGSYDCTNGDCFVFGGGTKVEIKRTVAAPSVFIFPPSDEQLKSGTASVVCLLNNFYPREAKVQWKVDNALQSGNSQESVTEQDSKDSTYSLSSTLTLSKADYEKHKVYACEVTHQGLSSPVTKSFNRGEC
notes: as for B6
  binding result: binds

B8: Antibody Ab12 (antibody, human IgG1, kappa, N297A, V domains shown)
VH: EVQLVESGGGLVQPGGSLRLSCAVSGIDVTNYYMQWVRQAPGKGLEWVGVIGVNGKRYYASWAKGRFTISRDNSKTTVYLQMNSLRAEDTAVYFCARGDIWGQGTLVTVSS
VL: QVLTQSPSSLSASVGDRVTINCRASQSVYYNNYLAWYQQKPGKVPKQLIYSTSTLASGVPSRFSGSGSGTDFTLTISSLQPEDVATYYCLGSYDCSNGDCFVFGGGTKVEIKR
notes: as for B6
  binding result: binds

B9: Antibody Ab5 (antibody, human IgG1, kappa, N297A)
heavy: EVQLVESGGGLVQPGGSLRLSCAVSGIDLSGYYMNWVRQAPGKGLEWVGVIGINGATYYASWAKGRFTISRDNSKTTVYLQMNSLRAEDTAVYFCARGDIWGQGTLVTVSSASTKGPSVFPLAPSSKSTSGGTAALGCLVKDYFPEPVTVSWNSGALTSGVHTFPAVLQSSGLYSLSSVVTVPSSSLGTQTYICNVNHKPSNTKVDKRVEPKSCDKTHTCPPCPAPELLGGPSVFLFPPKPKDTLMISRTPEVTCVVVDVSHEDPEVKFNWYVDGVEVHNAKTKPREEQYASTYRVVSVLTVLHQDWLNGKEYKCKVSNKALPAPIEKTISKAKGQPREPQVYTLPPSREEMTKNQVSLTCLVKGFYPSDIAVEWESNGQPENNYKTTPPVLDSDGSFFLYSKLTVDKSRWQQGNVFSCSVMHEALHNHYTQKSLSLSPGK
light: QVLTQSPSSLSASVGDRVTINCQASQSVYHNTYLAWYQQKPGKVPKQLIYDASTLASGVPSRFSGSGSGTDFTLTISSLQPEDVATYYCLGSYDCTNGDCFVFGGGTKVEIKRTVAAPSVFIFPPSDEQLKSGTASVVCLLNNFYPREAKVQWKVDNALQSGNSQESVTEQDSKDSTYSLSSTLTLSKADYEKHKVYACEVTHQGLSSPVTKSFNRGEC
  binding result: binds

B10: Antibody Ab14 (antibody, human IgG1, kappa, N297A)
heavy: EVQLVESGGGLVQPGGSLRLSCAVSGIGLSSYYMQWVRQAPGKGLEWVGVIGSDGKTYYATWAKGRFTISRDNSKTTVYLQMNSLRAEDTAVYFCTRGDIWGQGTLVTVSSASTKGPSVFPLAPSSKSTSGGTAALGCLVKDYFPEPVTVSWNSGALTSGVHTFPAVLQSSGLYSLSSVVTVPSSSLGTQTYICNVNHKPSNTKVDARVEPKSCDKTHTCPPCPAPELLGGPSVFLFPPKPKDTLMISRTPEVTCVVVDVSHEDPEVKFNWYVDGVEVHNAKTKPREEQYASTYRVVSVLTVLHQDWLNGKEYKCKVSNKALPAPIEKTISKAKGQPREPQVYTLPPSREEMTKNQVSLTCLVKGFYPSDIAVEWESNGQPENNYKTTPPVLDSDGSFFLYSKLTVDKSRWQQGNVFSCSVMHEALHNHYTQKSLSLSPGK
light: QVLTQSPSSLSASVGDRVTINCQASQNVYNNNYLAWYQQKPGKVPKQLIYSTSTLASGVPSRFSGSGSGTDFTLTISSLQPEDVATYYCLGSYDCSRGDCFVFGGGTKVEIKRTVAAPSVFIFPPSDEQLKSGTASVVCLLNNFYPREAKVQWKVDNALQSGNSQESVTEQDSKDSTYSLSSTLTLSKADYEKHKVYACEVTHQGLSSPVTKSFNRGEC
notes: as for B6
  binding result: binds

B11: Antibody Ab8 (antibody, human IgG1, kappa, N297A, V domains shown)
VH: EVQLVESGGGLVQPGGSLRLSCAVSGIDLSNHYMQWVRQAPGKGLEWVGVVGINGRTYYASWAKGRFTISRDNSKTTVYLQMNSLRAEDTAVYFCARGDIWGQGTLVTVSS
VL: QVLTQSPSSLSASVGDRVTINCQASQSVYNYNYLAWYQQKPGKVPKQLIYSTSTLASGVPSRFSGSGSGTDFTLTISSLQPEDVATYYCLGSYDCSTGDCFVFGGGTKVEIKR
notes: as for B6
  binding result: binds

B12: Antibody Ab3 (antibody, human IgG1, kappa, N297A)
heavy: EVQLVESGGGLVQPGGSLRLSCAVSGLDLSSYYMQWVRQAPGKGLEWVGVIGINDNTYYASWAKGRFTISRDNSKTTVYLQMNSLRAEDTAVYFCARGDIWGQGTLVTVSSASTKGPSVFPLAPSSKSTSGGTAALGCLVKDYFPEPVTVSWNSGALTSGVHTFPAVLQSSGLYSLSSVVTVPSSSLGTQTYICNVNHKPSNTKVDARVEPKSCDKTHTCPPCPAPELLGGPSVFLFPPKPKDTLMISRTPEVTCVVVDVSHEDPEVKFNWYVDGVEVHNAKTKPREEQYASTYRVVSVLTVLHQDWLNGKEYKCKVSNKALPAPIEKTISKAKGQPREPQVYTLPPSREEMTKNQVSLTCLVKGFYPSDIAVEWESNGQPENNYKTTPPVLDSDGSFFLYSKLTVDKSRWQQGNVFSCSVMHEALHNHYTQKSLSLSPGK
light: QVLTQSPSSLSASVGDRVTINCQASQSVYDNNYLAWYQQKPGKVPKQLIYSTSTLASGVPSRFSGSGSGTDFTLTISSLQPEDVATYYCLGSYDCSSGDCFVFGGGTKVEIKRTVAAPSVFIFPPSDEQLKSGTASVVCLLNNFYPREAKVQWKVDNALQSGNSQESVTEQDSKDSTYSLSSTLTLSKADYEKHKVYACEVTHQGLSSPVTKSFNRGEC
  binding result: binds

B13: Antibody Ab10 (antibody, human IgG1, kappa, N297A)
heavy: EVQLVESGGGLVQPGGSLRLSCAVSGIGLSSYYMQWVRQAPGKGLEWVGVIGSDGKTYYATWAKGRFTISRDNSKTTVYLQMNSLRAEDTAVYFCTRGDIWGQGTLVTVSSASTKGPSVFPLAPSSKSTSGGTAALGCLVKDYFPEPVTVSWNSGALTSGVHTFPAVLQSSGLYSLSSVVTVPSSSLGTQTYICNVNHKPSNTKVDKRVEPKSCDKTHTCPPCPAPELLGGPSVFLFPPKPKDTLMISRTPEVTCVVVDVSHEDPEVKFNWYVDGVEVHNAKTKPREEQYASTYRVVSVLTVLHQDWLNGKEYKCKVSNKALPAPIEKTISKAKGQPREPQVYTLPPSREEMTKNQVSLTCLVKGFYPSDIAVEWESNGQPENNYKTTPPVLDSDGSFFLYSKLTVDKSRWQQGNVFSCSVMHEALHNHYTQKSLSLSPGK
light: QVLTQSPSSLSASVGDRVTINCQASQNVYNNNYLAWYQQKPGKVPKQLIYSTSTLASGVPSRFSGSGSGTDFTLTISSLQPEDVATYYCLGSYDCSRGDCFVFGGGTKVEIKRTVAAPSVFIFPPSDEQLKSGTASVVCLLNNFYPREAKVQWKVDNALQSGNSQESVTEQDSKDSTYSLSSTLTLSKADYEKHKVYACEVTHQGLSSPVTKSFNRGEC
notes: as for B6
  binding result: binds
